In publication PMC12429063, “The BUB1 and BUBR1 paralogs scaffold the kinetochore fibrous corona” (Science Advances, 2025):

Columns and labels:
[1] = target: T1, mCherry-tagged ROD-Zwilch-ZW10 (RZZ) complex, wild type (UniProt P50748 1-2209; Q9H900 1-591; O43264 1-779); experiment: pull-down; GST-BUB1 baits on GSH beads, no phosphorylation step; 50 mM Hepes pH 8.0, 100 mM NaCl, 1 mM TCEP; beads 2 hours at 4°C; SDS-PAGE, Coomassie or in-gel fluorescence; details: both partners purified
T1 construct: ROD, subunit of the RZZ complex; Zwilch, subunit of the RZZ complex; ZW10, subunit of the RZZ complex; also called mCherry-RZZ; mCherry-RZZ^WT; source: expressed and purified using the biGBac system, as previously described; copies: 2 + 2 + 2
T1 sequence (P50748 whole entry, chain 1 of 3): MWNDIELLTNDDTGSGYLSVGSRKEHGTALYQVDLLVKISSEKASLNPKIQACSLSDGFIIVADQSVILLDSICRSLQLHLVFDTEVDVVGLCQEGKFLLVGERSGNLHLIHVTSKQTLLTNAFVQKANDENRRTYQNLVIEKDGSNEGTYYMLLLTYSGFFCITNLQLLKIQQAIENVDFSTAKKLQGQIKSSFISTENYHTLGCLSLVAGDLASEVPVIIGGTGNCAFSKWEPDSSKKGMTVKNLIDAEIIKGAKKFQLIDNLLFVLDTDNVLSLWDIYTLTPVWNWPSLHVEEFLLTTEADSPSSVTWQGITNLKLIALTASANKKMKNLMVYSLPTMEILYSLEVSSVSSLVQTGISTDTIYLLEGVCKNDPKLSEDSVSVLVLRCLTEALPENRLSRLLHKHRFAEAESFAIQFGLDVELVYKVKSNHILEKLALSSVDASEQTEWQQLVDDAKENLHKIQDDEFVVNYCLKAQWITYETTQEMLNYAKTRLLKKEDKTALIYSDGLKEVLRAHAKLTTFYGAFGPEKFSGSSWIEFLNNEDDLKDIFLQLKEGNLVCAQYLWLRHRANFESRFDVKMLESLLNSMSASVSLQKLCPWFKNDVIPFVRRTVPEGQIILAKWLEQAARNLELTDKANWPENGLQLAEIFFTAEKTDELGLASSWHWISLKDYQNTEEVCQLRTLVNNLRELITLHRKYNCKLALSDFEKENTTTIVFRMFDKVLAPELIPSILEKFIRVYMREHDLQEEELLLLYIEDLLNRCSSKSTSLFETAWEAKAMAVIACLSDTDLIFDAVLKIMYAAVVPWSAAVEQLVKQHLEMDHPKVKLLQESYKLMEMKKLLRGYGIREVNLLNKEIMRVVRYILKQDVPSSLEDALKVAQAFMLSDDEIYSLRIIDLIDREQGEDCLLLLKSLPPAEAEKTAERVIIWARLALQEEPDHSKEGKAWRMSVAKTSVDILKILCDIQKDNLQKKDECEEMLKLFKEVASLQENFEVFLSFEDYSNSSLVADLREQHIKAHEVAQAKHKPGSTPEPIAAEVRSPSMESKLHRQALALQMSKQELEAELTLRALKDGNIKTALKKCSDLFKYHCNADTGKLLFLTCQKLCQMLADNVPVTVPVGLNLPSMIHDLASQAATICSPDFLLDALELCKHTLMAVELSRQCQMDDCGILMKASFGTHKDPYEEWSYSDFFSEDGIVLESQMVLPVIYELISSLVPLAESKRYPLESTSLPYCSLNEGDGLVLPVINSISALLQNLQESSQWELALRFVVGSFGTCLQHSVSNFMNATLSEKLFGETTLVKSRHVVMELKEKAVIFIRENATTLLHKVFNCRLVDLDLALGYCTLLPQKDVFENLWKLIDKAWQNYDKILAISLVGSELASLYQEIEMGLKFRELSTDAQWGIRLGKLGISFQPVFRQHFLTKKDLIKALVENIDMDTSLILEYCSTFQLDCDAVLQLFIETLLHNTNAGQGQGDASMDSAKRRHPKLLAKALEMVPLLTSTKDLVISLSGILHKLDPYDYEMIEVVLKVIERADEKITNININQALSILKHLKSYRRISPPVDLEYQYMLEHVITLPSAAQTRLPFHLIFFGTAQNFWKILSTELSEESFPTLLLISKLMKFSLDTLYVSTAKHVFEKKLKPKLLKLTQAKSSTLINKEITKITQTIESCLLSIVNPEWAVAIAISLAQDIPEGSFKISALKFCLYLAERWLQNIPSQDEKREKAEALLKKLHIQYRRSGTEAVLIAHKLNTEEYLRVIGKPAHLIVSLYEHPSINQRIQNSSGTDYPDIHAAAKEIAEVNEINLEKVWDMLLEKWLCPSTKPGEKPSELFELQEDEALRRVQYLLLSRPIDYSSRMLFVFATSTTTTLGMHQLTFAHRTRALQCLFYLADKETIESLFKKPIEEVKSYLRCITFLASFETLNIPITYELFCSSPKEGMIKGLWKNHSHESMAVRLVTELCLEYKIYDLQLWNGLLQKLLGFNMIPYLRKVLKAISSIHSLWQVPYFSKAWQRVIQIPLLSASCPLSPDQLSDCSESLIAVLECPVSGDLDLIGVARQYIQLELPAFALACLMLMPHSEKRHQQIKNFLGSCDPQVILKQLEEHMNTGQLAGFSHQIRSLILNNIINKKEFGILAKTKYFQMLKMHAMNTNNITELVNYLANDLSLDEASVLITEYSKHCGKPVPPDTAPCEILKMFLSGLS
T1 sequence (Q9H900 whole entry, chain 2 of 3): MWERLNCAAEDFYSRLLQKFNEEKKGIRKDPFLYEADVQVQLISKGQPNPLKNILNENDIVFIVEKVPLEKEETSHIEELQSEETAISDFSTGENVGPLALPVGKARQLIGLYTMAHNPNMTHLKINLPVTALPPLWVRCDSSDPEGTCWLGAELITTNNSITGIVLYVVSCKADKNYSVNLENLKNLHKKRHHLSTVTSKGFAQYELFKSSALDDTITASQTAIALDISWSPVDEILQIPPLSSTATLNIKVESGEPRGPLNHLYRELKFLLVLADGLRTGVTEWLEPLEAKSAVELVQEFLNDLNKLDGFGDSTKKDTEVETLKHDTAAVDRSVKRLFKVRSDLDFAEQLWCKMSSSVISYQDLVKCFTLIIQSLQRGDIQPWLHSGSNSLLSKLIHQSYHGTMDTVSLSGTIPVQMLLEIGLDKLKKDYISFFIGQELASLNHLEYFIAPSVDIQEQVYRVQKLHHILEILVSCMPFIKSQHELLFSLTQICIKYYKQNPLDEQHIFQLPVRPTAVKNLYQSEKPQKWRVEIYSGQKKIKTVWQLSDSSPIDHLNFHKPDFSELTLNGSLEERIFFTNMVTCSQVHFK
T1 sequence (O43264 whole entry, chain 3 of 3): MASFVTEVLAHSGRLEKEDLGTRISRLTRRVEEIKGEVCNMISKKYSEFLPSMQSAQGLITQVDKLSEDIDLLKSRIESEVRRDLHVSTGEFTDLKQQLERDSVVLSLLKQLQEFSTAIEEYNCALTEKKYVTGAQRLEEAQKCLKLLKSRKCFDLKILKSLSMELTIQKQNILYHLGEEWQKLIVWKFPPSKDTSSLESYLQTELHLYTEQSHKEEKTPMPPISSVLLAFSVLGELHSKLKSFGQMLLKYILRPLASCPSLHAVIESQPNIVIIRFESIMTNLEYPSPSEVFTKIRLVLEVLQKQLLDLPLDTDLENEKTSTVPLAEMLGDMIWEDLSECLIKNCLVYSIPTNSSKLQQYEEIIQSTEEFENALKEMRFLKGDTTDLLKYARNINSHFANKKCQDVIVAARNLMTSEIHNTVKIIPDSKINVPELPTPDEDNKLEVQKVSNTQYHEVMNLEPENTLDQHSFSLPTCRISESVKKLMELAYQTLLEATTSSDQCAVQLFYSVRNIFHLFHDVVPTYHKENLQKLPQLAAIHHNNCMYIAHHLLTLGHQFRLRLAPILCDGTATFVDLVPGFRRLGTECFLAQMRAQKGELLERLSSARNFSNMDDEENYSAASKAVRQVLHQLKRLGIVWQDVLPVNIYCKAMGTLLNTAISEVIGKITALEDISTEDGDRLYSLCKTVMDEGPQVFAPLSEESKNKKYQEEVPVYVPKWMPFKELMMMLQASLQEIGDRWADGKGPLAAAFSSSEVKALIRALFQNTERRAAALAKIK

[2] = target: T2, RZZS rings: mCherry-RZZ polymerized with farnesylated GFP-Spindly in the presence of MPS1 kinase domain (UniProt P50748 1-2209; Q9H900 1-591; O43264 1-779; Q96EA4 1-605, incubated with MPS1 kinase domain and ATP (the paper names T13 and S15 of ROD as the MPS1 sites) | farnesylated); experiment: co-sedimentation; pelleting assay: polymerized RZZS incubated with preys 2 hours at 20°C, 40% glycerol cushion, 100,000g 45 min at 20°C; 50 mM Hepes pH 8, 100 mM NaCl, 2 mM MgCl2, 1 mM TCEP; details: both partners purified
T2 construct: ROD, subunit of the RZZ complex; Zwilch, subunit of the RZZ complex; ZW10, subunit of the RZZ complex; Spindly, dynein-dynactin adaptor; A polymer; also called polymerized RZZS; RZZS filaments; copies: + + +
T2 sequence (P50748 whole entry, chain 1 of 4, the tested form may be a part): as the sequence (P50748 whole entry, chain 1 of 3) above
T2 sequence (Q9H900 whole entry, chain 2 of 4, the tested form may be a part): as the sequence (Q9H900 whole entry, chain 2 of 3) above
T2 sequence (O43264 whole entry, chain 3 of 4, the tested form may be a part): as the sequence (O43264 whole entry, chain 3 of 3) above
T2 sequence (Q96EA4 whole entry, chain 4 of 4, the tested form may be a part): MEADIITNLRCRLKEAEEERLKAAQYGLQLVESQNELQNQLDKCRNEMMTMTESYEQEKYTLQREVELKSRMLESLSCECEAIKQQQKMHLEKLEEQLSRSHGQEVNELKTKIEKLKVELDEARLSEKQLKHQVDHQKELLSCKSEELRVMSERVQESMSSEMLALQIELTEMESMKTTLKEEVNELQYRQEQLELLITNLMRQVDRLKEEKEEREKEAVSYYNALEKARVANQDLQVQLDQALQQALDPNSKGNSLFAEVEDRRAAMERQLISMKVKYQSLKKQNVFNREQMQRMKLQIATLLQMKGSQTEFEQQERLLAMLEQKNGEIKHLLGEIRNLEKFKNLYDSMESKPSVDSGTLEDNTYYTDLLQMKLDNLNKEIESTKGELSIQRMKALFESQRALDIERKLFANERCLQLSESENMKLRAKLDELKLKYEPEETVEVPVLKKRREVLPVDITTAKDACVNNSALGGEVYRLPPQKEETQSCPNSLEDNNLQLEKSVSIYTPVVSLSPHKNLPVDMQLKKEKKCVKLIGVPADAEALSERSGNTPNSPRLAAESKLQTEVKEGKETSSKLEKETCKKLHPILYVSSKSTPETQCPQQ

B1: GST-BUB1^467-521 (domain or fragment, human, UniProt O43683 467-521, looked up)
chain: ALGFIMNMFQAPTLPDISDDKDEWQSLDQNEDAFEAQFQKNVRSSGAWGVNKIIS
notes: source: E. coli BL21 CodonPlus, purified (GSTrap, SEC); not shown: GST, N-terminal, kept
Does B1 bind [1]?
Result: binds

Does B1 bind [2]?
Result: binds
